Holding throughout (format): biochemical
Data set [1] in a line: Cation dependence. As to conditions: 10 to 100 mM. On the procedure: FIG. 3 represents Table 3 giving an overview over the biochemical properties of the cellulases according to the invention. Reaction was performed at the optimum pH and temperature for each done using CMC as substrate. […] The values for clones pBKRR.1, 9, 11, 13, 14, 16 and 22 are depicted. For each clone the following data are given: • maximum pH at which the remaining activity after 24 h incubation at the indicate pH is >90% (column “Stable at pH”). […] Activity was measured after 2 h incubation and compared with a control reaction in buffer lacking dimethylsulfoxide, • detergent resistance given by the remaining activity in the corresponding buffer (optimum pH) containing the indicate detergent at a concentration for 0 to 3%. […] The effect of mono- (Na^+, K^+, NH4^+, and divalent cations (Ca^2+, Mn^2+, Mg^2+, Sr^2+, Fe^2+, Cu^2+, Ni^2+, Co^2+, Zn^2+) was first examined by treating the enzyme with chelating agents (EDTA and EGTA) to remove any endogenous divalent cations, followed by adding cations to the reaction mixture.
[…] Inhibitors such as N-ethylmalemide, iodoacetate and p-chloromercuribenzoate at concentration from 1-5 mM were incubated in the presence of the enzyme for 30 min (30° C.) prior to the addition of the substrate (CMC). The effects of detergents on the endoglucanase activity was analysed by adding of 1-3% (wt/vol) detergent to the enzyme solution. In all cases, the enzyme activity was assayed in triplicate using the standard cellulose assay described above and the residual activity was expressed as percent of the control value (without addition of chemicals).

The nature of data set [2]: TLC analysis of hydrolysis products. As to conditions: pH 5.6, 50° C. An excerpt:
FIG. 7 depicts the result of thin layer chromatography TLC analysis of products of CMC hydrolyzed by endoglucanases derived from a rumial genomic DNA library. The methods used for cellulase and substrate preparation, hydrolysis, TLC, and visualization are described in Example 5. The hydrolysis products glucose, cellobiose, cellotriose are shown an the right side. […] Different pattern was found when using short-chain beta-1,4-glucans.
The products formed by hydrolysis of cellulose-based substrates (cellobiose, cellotetraose, cellopentaose, cellulose and carboxymethyl cellulose) were analysed by thin-layer chromatography (TLC). Solutions containing 20 μg of E. coli cell lysate proteins and 0.2% (wt/vol) substrate in 50 mM acetate buffer (pH 5.6) were incubated at 50° C. until maximum conversion was achieved. The reactions were terminated by heating the preparation for 5 min at 95° C. and hydrolysis products were separated by TLC on silica gel plates (Merck, Darmstadt, Germany) by using a mixture chloroform, glacial acetic acid, and water (6:14:1) as the solvent. […] Sugars were visualized by heating 105° C. for 15 min the plates which were previously sprayed with a reagent containing amine (2 ml), diphenylamine (2 g), acetone (100 ml) and 85% H3PO4 (15 ml).

Data set [3] in a line: Thermal activity and thermostability. As to conditions: at the pH optima; CMC. The protocol: (§1) FIG. 3 represents Table 3 giving an overview over the biochemical properties of the cellulases according to the invention. Reaction was performed at the optimum pH and temperature for each done using CMC as substrate. […] The values for clones pBKRR.1, 9, 11, 13, 14, 16 and 22 are depicted. For each clone the following data are given: • maximum pH at which the remaining activity after 24 h incubation at the indicate pH is >90% (column “Stable at pH”). […] Activity was measured after 2 h incubation and compared with a control reaction in buffer lacking dimethylsulfoxide, • detergent resistance given by the remaining activity in the corresponding buffer (optimum pH) containing the indicate detergent at a concentration for 0 to 3%. […]
(§2) FIG. 4 a-c represent the results of the determination of pH and temperature optima showing graphically views of the pH-dependence activity and temperature-dependence activity of the polypeptides according to the invention. The pH optima of rumial endoglucanases were measured under conditions described in Example 5: 4% CMC, 0.5 mL of 50 mM buffer at the corresponding pH and 0.1 mg E. coli cell lysates, for 5-30 min, at 40° C. Effect of temperature on endoglucanase activity was measured in 50 mM sodium acetate buffer pH 5.6. […]

Data set [4] can be described thus: pH-dependent activity and pH stability. Particulars: cell lysates; CMC; pH 3.5 to 10.5 at 40° C. The protocol:
as §1, §2

Data set [5] can be described thus: Specific activity of purified endoglucanases. As to conditions: purified to homogeneity; pH 5.6 and 50° C.; CMC as substrate. On the procedure:
FIG. 2 represents Table 2 which contains the data obtained by purification of endoglucanases of seven clones (pBKRR.1, 9, 11, 13, 14, 16 and 22) with respect to the specific activity. […] They were purified to homogeneity and their specific activity was estimated at pH 5.6 and 50° C., using CMC as substrate.
The endoglucanases were recovered from 1-liter shaked flask fermentations, in Luria-Bertany broth plus 50 μg of Kanamycin per ml. One gram of fermentation broth was mixed with 10 ml of standard buffer in a 50-ml Falcon tube. The solution was vortexed and then incubated with DNase I grade II, for 30-45 min, and then sonicated for 4 min total time. A sample of the soluble fraction was separated from insoluble debris by centrifugation (10,000×g, 30 min, 4° C.) and proteins were precipitated by addition of 80% chilled acetone (−20° C.). Proteins were resuspended in standard buffer and stored at −20° C. at a concentration of 5 mg/ml until use. The amount of protein expression was examined using SDS-PAGE with 10-12% acrylamide. […] The gel region containing the active cellulase, detected in a parallel track by activity staining (using Ostazin brillian-blue carboxymethyl cellulose) was excised, suspended in two volumes of standard fuffer and homogenized in a glass tissue homogenizer. […]
The standard cellulase activity was determined in a continuous spectrophotometric assay by measuring the release of reducing sugars from the 4% (wt/vol carboxymethyl cellulose (CMC) in 0.5-ml reaction mixtures containing 50 mM sodium acetate buffer, pH 5.6, at 40° C., using the dinitrosalycilic acid (DNS) method (Bernfeld, P. (1955) Amilases and b. In: Colowick S P, Kaplan N O (eds). Methods in Enzymology, Academic Press, New York pp. 133-155). The reaction was performed in 0.5 ml scale containing 20 mg substrate and 5 mg lyophilised cells or 0.1 mg purified enzyme. Reactions were allow to proceed for a time period of 5-30 min after which the samples were centrifuge (10,000×g, 3 min). […] Finally, each well was diluted with 150 μl water and the absorbance at 550 nm was measured. […]

B1: pBKRR.11: rumen endo-beta-1,4-glucanase, sequences FIG. 14/22 (protein)
chain: MRILKLFFIALITAAPIFSYAQTVDDMKSVFVDAHTWTASIKMGWNLGNALECQTGWNDKAFCWNPANNFNAETSWGNPKTTKEMLQAVREAGFDAVRIPVNWGAHISDESTCTIDAAWMNRVQEVVDWALQLGFKVLLNTHHEYWLEWHPTYDREQANNNKLAKIWMQVANRFKDYGPDLAFAGINEVHLDGKWNVPTEENTAVTNSYNQTFVNTVRATGGNNLYRNLVVQCYSCNPDYGLTGFVVPADKVENRLSIEYHYYRPWDYAGDAPKYYYWGEAYKQYGEVSTADNEAKVNADFARYKAAWYDKGLGVIMGEWGASQHYQVESKAKQLENLYYHFKTVREAAQKNNIATFVWDNNACGNGGDKFGIFDRNDNMSVAFPEALNAIQEASGQTVVDYSRQALQPSVVYQGDELMNWGEGKQLIIAGSKFAYFTAESKLMVTLDAEPGADYDMLQFAYGDWKSKPLMIISGRSYKGQVEPSKINGSRNTYTLFIGFKESSLNQLKDKGITLQGHGLRLRNVVVMPEGLVLGL
modifications: Description of sequence sequence derived from genomic DNA library from rumen ecosystem, particularly amino acid sequence of clones pBKRR 11, 10 and 12; RR10=RR11=RR12; (see Figure 22)
Regarding B1, the “stimulatory effect of Mg^2+” value in data set [1] (chloride salt) was 127%. In data set [1] (chloride salts, after EDTA and EGTA treatment), the “influence of mono- and divalent cations on activity” value is “not influenced”. The “main hydrolysis products of CMC” value in data set [2] is “cellobiose and cellotriose”. Besides, the “temperature of improved activity and thermostability” value in data set [3] is 50 °C. For the same molecule, the “pH of highest (maximal) activity” value in data set [4] was 4.5 pH. In data set [5], this molecule showed a specific activity of 6.42 µmol/min/mg.

Values taken from US20080261267A1, “Cellulases from Rumen” (priority 2004, published 2008).
